Measured values from article PMC3834253, “Attenuation of VEGFR-2 Expression by sFlt-1 and Low Oxygen in Human Placenta” (PLoS ONE, 2013).

Target: T1, Vascular endothelial growth factor receptor 2 (VEGFR-2) (human (endogenous in placenta), UniProt P35968 20-1356)
T1 construct: VEGF receptor-2 (VEGFR-2, also known as KDR), human, endogenous in placental tissue; precipitated with a monoclonal VEGFR-2 antibody (Cell Signaling Technology); Endogenous receptor in frozen placental tissue lysates; bait of the co-immunoprecipitation; also called VEGF receptor-2; KDR; source: endogenous, human placental tissue lysate
Assay: co-IP; human placental tissue lysates (8, 12 and 35 weeks of gestation; preeclamptic placentae), 500 ug protein, precleared with Protein-A Agarose, precipitated with 1 ug monoclonal VEGFR-2 antibody overnight at 4 C, washed 3 times in ice cold RIPA buffer, blotted for sFlt-1
Conditions: partners not purified

T1 sequence (P35968 20-1356): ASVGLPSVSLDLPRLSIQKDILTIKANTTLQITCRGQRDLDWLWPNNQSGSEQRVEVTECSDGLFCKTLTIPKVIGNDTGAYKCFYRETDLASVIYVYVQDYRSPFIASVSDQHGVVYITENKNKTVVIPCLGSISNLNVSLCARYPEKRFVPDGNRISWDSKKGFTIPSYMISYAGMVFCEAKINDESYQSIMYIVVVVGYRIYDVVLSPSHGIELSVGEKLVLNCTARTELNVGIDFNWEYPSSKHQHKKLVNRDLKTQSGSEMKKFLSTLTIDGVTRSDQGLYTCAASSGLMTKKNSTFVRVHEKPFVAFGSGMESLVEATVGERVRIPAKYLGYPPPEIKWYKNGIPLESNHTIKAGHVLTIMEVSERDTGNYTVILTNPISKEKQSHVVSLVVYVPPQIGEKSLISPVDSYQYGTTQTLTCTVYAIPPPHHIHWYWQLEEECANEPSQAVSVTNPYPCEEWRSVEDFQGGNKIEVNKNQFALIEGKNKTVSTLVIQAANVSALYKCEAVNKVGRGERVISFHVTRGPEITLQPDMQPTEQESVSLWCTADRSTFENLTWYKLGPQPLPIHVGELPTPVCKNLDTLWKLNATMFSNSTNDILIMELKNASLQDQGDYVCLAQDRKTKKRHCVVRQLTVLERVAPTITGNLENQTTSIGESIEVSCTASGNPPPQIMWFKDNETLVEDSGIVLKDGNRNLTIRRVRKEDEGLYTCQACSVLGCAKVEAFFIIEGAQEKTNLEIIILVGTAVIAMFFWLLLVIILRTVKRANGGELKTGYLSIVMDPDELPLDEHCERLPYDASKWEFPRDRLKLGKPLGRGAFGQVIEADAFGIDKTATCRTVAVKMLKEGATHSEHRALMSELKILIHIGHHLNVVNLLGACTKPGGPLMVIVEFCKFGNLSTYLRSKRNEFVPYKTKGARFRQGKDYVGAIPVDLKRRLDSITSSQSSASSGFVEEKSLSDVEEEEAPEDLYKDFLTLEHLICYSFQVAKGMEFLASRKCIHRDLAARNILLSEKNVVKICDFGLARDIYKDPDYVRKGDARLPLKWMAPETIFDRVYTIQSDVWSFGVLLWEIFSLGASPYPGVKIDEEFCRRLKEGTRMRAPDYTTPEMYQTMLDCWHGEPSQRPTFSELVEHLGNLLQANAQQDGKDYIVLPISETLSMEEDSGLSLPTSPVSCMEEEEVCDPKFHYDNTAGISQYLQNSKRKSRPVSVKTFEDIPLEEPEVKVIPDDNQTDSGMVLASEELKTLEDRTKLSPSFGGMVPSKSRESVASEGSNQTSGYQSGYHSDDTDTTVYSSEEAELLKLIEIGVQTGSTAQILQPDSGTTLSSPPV

- fold co-immunoprecipitated sFlt-1 (densitometry), PE over PTC placentae: 5.98 fold
B1: soluble VEGF receptor-1 (sFlt-1), 105 kDa species (sFlt-13) (natural protein, human (endogenous in placenta), UniProt P17948-2 27-687, looked up)
chain: SKLKDPELSLKGTQHIMQAGQTLHLQCRGEAAHKWSLPEMVSKESERLSITKSACGRNGKQFCSTLTLNTAQANHTGFYSCKYLAVPTSKKKETESAIYIFISDTGRPFVEMYSEIPEIIHMTEGRELVIPCRVTSPNITVTLKKFPLDTLIPDGKRIIWDSRKGFIISNATYKEIGLLTCEATVNGHLYKTNYLTHRQTNTIIDVQISTPRPVKLLRGHTLVLNCTATTPLNTRVQMTWSYPDEKNKRASVRRRIDQSNSHANIFYSVLTIDKMQNKDKGLYTCRVRSGPSFKSVNTSVHIYDKAFITVKHRKQQVLETVAGKRSYRLSMKVKAFPSPEVVWLKDGLPATEKSARYLTRGYSLIIKDVTEEDAGNYTILLSIKQSNVFKNLTATLIVNVKPQIYEKAVSSFPDPALYPLGSRQILTCTAYGIPQPTIKWFWHPCNHNHSEARCDFCSNNEESFILDADSNMGNRIESITQRMAIIEGKNKMASTLVVADSRISGIYICIASNKVGTVGRNISFYITDVPNGFHVNLEKMPTEGEDLKLSCTVNKFLYRDVTWILLRTVNNRTMHYSISKQKMAITKEHSITLNLTIMNVSLQDSGTYACRARNVYTGEEILQKKEITIRGEHCNKKAVFSRISKFKSTRNDCTTQSNVKH
notes: sFlt-1, truncated soluble splice variant of VEGFR-1 (six extracellular IgG like domains with a unique C-terminus), human; isoform assigned by the authors from the band size; Detected by blot with an sFlt-1 antibody (AF321, R&D Systems) in VEGFR-2 immunoprecipitates; also called soluble VEGFR-1; source: endogenous, human placental tissue lysate
